# Data: PMC3683042, “Solution Structure and Peptide Binding of the PTB Domain from the AIDA1 Postsynaptic Signaling Scaffolding Protein” (PLoS ONE, 2013)
# B1: wild type: PTB domain (aa. 1043–1195) of human AIDA1b, amino terminal 6xHis tag and intervening thrombin site (protein, UniProt Q7Z6G8 1043-1195, looked up, fragment)
# chain: TPVQYWQHHPEKLIFQSCDYKAFYLGSMLIKELRGTESTQDACAKMRANCQKSTEQMKKVPTIILSVSYKGVKFIDATNKNIIAEHEIRNISCAAQDPEDLSTFAYITKDLKSNHHYCHVFTAFDVNLAYEIILTLGQAFEVAYQLALQARKG
# modifications: PTB domain His tag, thrombin site
# notes: PTB domain (aa. 1043–1195) of human AIDA1b, amino terminal 6xHis tag and intervening thrombin site
# Columns and labels:
# [1] = Thermal denaturation midpoint (Tm) by CD spectroscopy; assay type: physicochemical; conditions: far UV CD, ellipticity at 222 nm, 50 µM protein, heating 20–90°C at 2°C/min
# Method: Far UV circular dichroism (CD) spectra were acquired with a Jasco J-810 instrument at a protein concentration of 50 µM using a rectangular cell with a 0.1 cm path length. Spectra were recorded from 260–200 nm with a scan rate of 50 nm/min and a 1.0 nm bandwidth. A midpoint denaturation temperature (Tm) was determined by heating samples from 20–90°C at 2°C/min and monitoring ellipticity at 222 nm.
# [2] = Solubility of the AIDA1 PTB domain and mutants
# Excerpt: Since the objective of the aromatic-alanine substitutions was to improve solubility for a structure determination, ^15N-HSQC spectra were used qualitatively.
molecule,measurement,setting,value
B1,Tm,[1],62 °C
same,solubility (in words),[2],poor solubility
same,"soluble concentration, at least one day at room temperature",[2],0.15 mM
same,Solubility,"[2]; concentrated until increased resonance line broadening or apparent turbidity, 15N-HSQC NMR read-out, 20 mM Na-phosphate, pH 7.8, […] NaCl, 0.05% (w/v) NaN3",100 µM
